Legend:
[1] = GC/MS detection of 2,5-DCP; assay type: biochemical; details: purified protein, dicamba substrate
Method: The decarboxylated and demethylated product of dicamba, 2,5-dichloro phenol or 2,5-DCP (FIG. 1E) is measured using a GC/MS analytical procedure with either liquid injection after liquid/liquid extraction using toluene as the extraction solvent or gas injection using head space method. The head space sample analysis is carried out on an Agilent GC/MS system with a 6890A GC, a 5973N MSD and a CTC CombiPAL auto-sampler or with a 7890A GC, a 5975C MSD and an Agilent GC Sampler 80 auto-sampler with Phenomenex ZB-MultiResidue-1 column (30 m length, 0.25 mm diameter, 0.25 um film) or equivalent. GC/MS parameters are: GC inlet temperature, 200° C.; Carry gas, helium in constant flow mode (1.2 mL/min); Oven temperature program, 70° C. for 1 min and then ramp to 275° C. at 40° C./min. Protein reactions are carried out in a 1.5 ml 12×32 mm glass vials for head space analysis as described previously. The reaction vial is transferred to a agitator for incubation at 90° C. for 4 min at 500 rpm. With a syringe preheated at 110° C., 1000 uL of head space is injected with sample fill speed at 100 uL/sec. A 2-mm diameter liner is used in sample inlet. The MS data acquisition is done in SIM (selected ion monitoring) mode. The positive ion at M/Z 162 for the molecular ion of 2,-5-DCP is monitored at retention time of 4.06 min. Solvent delay for MS acquisition is set at 3 min. […]

[2] = Saturation mutagenesis of SEQ ID NO:109: dicamba decarboxylation activity of point mutants (CO2 released), fold of backbone (Tables 7, 8, Megatable 1); details: decarboxylation activity (CO2 released) of point mutant vs unmutated backbone protein; backbone SEQ ID NO: 109
[3] = LC-MS/MS detection of 4-chloro-3-methoxy phenol; assay type: biochemical; details: purified protein, dicamba substrate
Method: The decarboxylated and chloro hydrolyzed product, 4-chloro-3-methoxy phenol (FIG. 1D), is measured using a LC-MS/MS analytical procedure. […] 10 ul is removed from the reaction mixture and mixed with 90 ul pre-chilled methanol followed by centrifugation at 14,000 rpm for 15 min at 4° C. 10 ul of the supernatant is then transferred into 170 ul ddH2O to achieve 5% methanol solution for injection. 50 ul of the prepared sample is injected into a 4000 Q Trap LC-MS/MS system for sample analysis. LC-MS/MS parameters are: Mobile Phase A, 2 mM ammonium acetate in water; Mobile Phase B, 2 mM ammonium acetate in methanol; Column, Aquasil, 100×2.1 mm, 3 μm, C18 column; Flow Rate, 0.6 ml/min. The MS/MS fragment 157/142 which is common to 4-chloro-3-methoxy phenol, 2-chloro-5-methoxy phenol, and 3-chloro-5-methoxy phenol is monitored at a retention time of 2.88 min.

[4] = GC/MS detection of decarboxylation product 2,5-DCA (toluene trapping or head space); assay type: biochemical; details: purified protein, dicamba substrate
Method: Alternatively, dicamba decarboxylase activity can be monitored by measuring decarboxylation products other than CO2 using product detection methods. The decarboxylation product of dicamba, 2,5-dichloro anisole or 2,5-DCA (FIG. 1C), is a volatile compound with a flash point of 21° C. To capture this volatile compound for detection, 140 ul of toluene solution is added on top of 1 ml reaction mixture to form a trapping layer in a 1.5 ml eppendorf tube. […] The reaction is kept still at room temperature overnight before being vortex mixed and centrifuged at 14,000 rpm for 15 minutes. The top toluene phase is carefully removed using a micropipette and transferred into a 12×32 mm polypropylene vial (Vial 11 mm) from MicroLiter Analytical Supplies, Inc. (catalog number 11-5300-100). The vial is sealed with Crimp seal (11 mm with FEP/Nat Rubber) from MicroLiter Analytical Supplies, Inc. (catalog number 11-0020A) using a E-Z Crimper™ 11 mm from Wheaton Inc. lul of the toluene mixture is taken from the sealed vials and injected in splitless mode into a GC/MS system for sample analysis (Agilent GC/MS system with a 6890A GC, a 5973N MSD and a CTC CombiPAL auto-sampler or with a 7890A GC, a 5975C MSD and an Agilent GC Sampler 80 auto-sampler). The GC parameters are: Agilent DB-5MS column (30 m length, 0.25 mm diameter, 0.25 um film) or equivalent; The GC inlet temperature, 250° C.; Carry gas, helium in constant flow mode (1.2 mL/min); The GC oven temperature program, initial temperature at 70° C. for 1 min, ramping to 200° C. at 15° C./min, and then ramping to 250° C. at 30° C./min. MS data acquisition is done in SIM (selected ion monitoring) mode, monitoring the positive ion at M/Z 176 for the molecular ion of […]. The solvent delay for MS acquisition is set at 4 min. Another method for detection of 2,5-DCA is a head-space GC/MS method. Briefly, reaction mixtures in 500 ul reaction volume are prepared in 1.5 ml 12×32 mm glass vials (Microliter Analytical Supplies, Cat#11-1200) for head space analysis. Glass vials are sealed with magnetic cap from MicroLiter Analytical Supplies, Inc. (catalog number 11-0030AT) using a E-Z Crimper™ 11 mm from Wheaton Industries Inc. The reaction is carried out at room temperature for various amount of time and stopped by heating at 95° C. for 5 min. The reaction vial is transferred to a agitator for incubation at 80° C. for 5 min at 500 rpm. With a syringe preheated at 80° C., 1000 uL of head space is injected with sample fill speed at 100 uL/sec. GC/MS parameters for headspace analysis are the same as for liquid sample analysis.

[5] = Dicamba decarboxylase activity / product analysis with purified His-tag protein (14C assay and product detection of Example 1); assay type: biochemical; details: statement of the description
Method: To obtain purified protein for activity assays, IPTG-induced cells were harvested by centrifugation at 7,000 rpm for 10 mins Cell pellet from 50 mL of cell culture was frozen and thawed twice and then lysed in 8004 lysis buffer consisting of 50 mM potassium phosphate buffer (pH7.0), 50 μM ZnSO4, 5% EG, 50 mM KCl, 1 mM DTT, 0.2 mg/ml lysozyme, 1/200 protease inhibitor cocktail (EMD set3, EDTA free), and 1/2,000 endonuclease. Lysate was then centrifuged at 13,000 rpm for 45 min at 4° C. Supernatant was loaded onto 200 μL Ni-NTA columns pre-equilibrated with 10 mM His Buffer containing 25 mM potassium phosphate buffer pH7, 50 μM ZnSO4, 5% EG, 200 mM KCl, and 10 mM histidine. The columns were let sit at 4° C. until the entire supernatant passed through. Each column was then washed with 200 ul 10 mM His Buffer twice and then 4 times with 800 ul loading buffer consisting of 25 mM potassium phosphate buffer pH7, 50 μM ZnSO4, 5% EG, 200 mM KCl. Protein was eluted with 1504 of Elution Buffer consisting of 25 mM potassium phosphate buffer pH7, 50 μM ZnSO4, 5% EG, 100 mM KCl, 100 mM histidine, 10% glycerol. The protein concentration was measured by Bradford assay. Purified protein was used for dicamba decarboxylase activity measurement as described in Example 1. Enzyme kinetic characterization of selected dicamba decarboxylases was determined through GC/MS measurement of 2,5-DCP or PEPC coupled assay as described in Example 1.

B1: 1 (protein, listed as Rhizobium sp.)
chain: MAQGKVALEEHFAIPETLQDSAGFVPGDYWKELQHRLLDIQDTRLKLMDAHGIETMILSLNAPAVQAIPDRRKAIEIARRANDVLAEECAKRPDRFLAFAALPLQDPDAATEELQRCVNDLGFVGALVNGFSQEGDGQTPLYYDLPQYRPFWGEVEKLDVPFYLHPRNPLPQDSRIYDGHPWLLGPTWAFAQETAVHALRLMASGLFDEHPRLNIILGHMGEGLPYMMWRIDHRNAWVKLPPRYPAKRRFMDYFNENFHITTSGNFRTQTLIDAILEIGADRILFSTDWPFENIDHASDWFNATSIAEADRVKIGRTNARRLFKLDGA
relative amount of 2,5-DCP compared to CO2 formation (100%) [1]: > 80% | Fold Activity [2]: 1.2 fold | relative amount of 4-chloro-3-methoxy phenol compared to CO2 formation (100%) [3]: < 10% | relative amount of 2,5-DCA compared to CO2 formation (100%) [4]: < 1% | dicamba decarboxylase activity [5]: native dicamba decarboxylase activity

From US20160040149A1, “Compositions Having Dicamba Decarboxylase Activity and Methods of Use” (priority 2013, published 2016)
